# From patent US12098378B2, “Anti-fungal polypeptides” (priority 2020, dated 2024)
# How the values were obtained:
# [1] = system: Uncinula necator; assay: Control of powdery mildew on grapevine in field; assay type: in vivo; details: 250, 500, 750 g ai/ha, 8 applications, until four weeks after application
# Experimental: Four replicates of 10 vines (25 m^2 per plot) were treated with 8 or 10 l of spray solution, corresponding with a spray volume of […], according to local practice and growth stage of the vines. The spray mix contained a concentration of active ingredient as described in Table 4. Eight applications were performed, spaced on average 10 days apart. No artificial infection was performed and first spray was at pre-bloom stage, before first powdery mildew symptoms. The efficacy 10G11 was compared to that of a non-treated control and the chemical reference Topas 10 EC (Penconazole). In addition, a chemical rotation of Tiovit Jet (sulphur), Vivando (Metrafenon), Sercadis (Fluxapyroxad), Prosper 500 EC (Spiroxamine) and Karathane Star (Meptyldinocap) was evaluated. A seventh treatment replaced part of the chemicals in this chemical rotation by 10G11 as described in Table 4.
# Efficacy assessments were performed on leaves by evaluating the percentage of leaf area affected on 100 leaves randomly selected from the same position on the shoot. In addition, powdery mildew infection on fruits was assessed as the percentage of infected area of 50 randomly selected bunches per plot. Assessments continued until 4 weeks after the last application.
# [2] = system: Fraction 3; assay: Bio-layer interferometry (BLI) binding; design: species or system Botrytis cinerea; details: compared to a reference VHH (FIG. 12)
# Description: 10G11 binding to Fraction 3 was further confirmed by bio-layer interferometry (BLI). BLI is a label-free optical analytical technique for measuring biomolecular interactions (Kamat et al, 2017. Analytical biochemistry 536: 16-31; Wallner et al. 2013. Journal of Pharmaceutical and Biomedical Analysis 72: 150-154).
# [3] = system: Botrytis cinerea R16; assay: In vitro antifungal assay, IncuCyte Zoom monitoring of fungal growth from spore suspension; assay type: cell-based; details: confluence at mid log growth, four-parameter logistic regression (FIG. 1); read-out: IC50, concentration that inhibits 50% of spore germination and/or mycelial growth
# Experimental: (§1) Two-fold dilutions of purified VHH 10G11Q were prepared in 96-well microtiter plates. To 20 μl of these dilutions and to 20 μl of water as a control, 80 μl of fungal spore suspension (1 E+05 spores/ml in half strength potato dextrose broth (PDB)) were added, starting with a final VHH 10G11Q concentration of 10 μM. The test plates were incubated for 36 h at 25° C. using the IncuCyte Zoom live cell imaging system. All tests were performed in at least 2 replicates.
# as §1, with “VHH 10G11Q and 41D01 were prepared” for “VHH 10G11Q were prepared”, “concentration of 40 μM. The” for “concentration of 10 μM. The”, “incubated for 48 h at” for “incubated for 36 h at”
# Microplate graphs were generated using the time plot feature in the graph/export menu of the IncuCyte® Base Analysis Software. Raw data for confluence of treated samples at mid log growth were exported to GraphPad Prism 8 and plotted as a semi logarithmic function of the standard concentrations. IC50 values are extrapolated after fitting the data with a four-parameter logistic regression curve. Pathogen sensitivity is measured based on the IC50, which refers to the concentration (μM) that inhibits 50% of spore germination and/or mycelial growth.
molecule,measurement,setting,value
"10G11: VHH polypeptide, SEQ ID NO: 2, begins with a D residue (protein) VHH: DVQLVESGGGLVQAGGSLRLSCAASRSIFSINAMDWYRQAPGKQREWVAGITRGGTTKYADSVKGRFTISRDNAKKKVYLQMNSLKPEDTAVYYCNVLRGEQPWTRDYWGQGTQVTVSS",severity of powdery mildew on grape leaves (percentage of leaf area affected),[1]; very high disease pressure (FIG. 20),clear and dose-related performance
same,severity of powdery mildew on grape bunches (percentage of infected area),[1]; very high disease pressure (FIG. 21),clear and dose-related performance
same,binding to Fraction 3 by BLI,[2],confirmed binding
same,IC50,[3],0.76 ± 0.1 µM
